Test results as given in article doi:10.1101/2024.04.29.591597 (bioRxiv, 2024).
Each block holds one binder with its values, some of them ahead of it.

Legend:
[1] = molecular target: native OspC type K (OspCK) on live B. burgdorferi strain 297 (B. burgdorferi (endogenous in strain 297)); test: flow cytometry on cells
[2] = molecular target: OspC type B (OspCB) used in BLI (Borreliella burgdorferi, OspC type B …, UniProt Q44977); test: BLI
[3] = molecular target: the molecule itself; test: crystal structure

MFI [1]: < 35
binding result [2]: no binding
B1: human monoclonal antibody B11 IgG1 (antibody, V domains shown)
VH: QLQLQESGPGLVKPSQTLSLTCTLSGGSISSTSYYWGWIRQPPGSGLEWIGSMYHSGNTYYKSSLKGRVTISLDTSRTQFSLRLTSVTAADTAVYYCARLGDVFNSAMDVWGQGTTVIVSS
VL: EIVMTQSPVTLSVSPGERATLSCRASQSVGNNLAWYQHKPGQAPRLLIYDASTRATGIPGRFSGSGSGTEFTLTISSLQSEDFAVYYCQEYNNWPRYTFGQGAKLEIR

B2: Recombinant Outer surface protein C type A (OspCA), residues 38 to 201, homodimer (domain or fragment, B. burgdorferi B31, UniProt Q07337 38-201, looked up)
chain: KGPNLTEISKKITDSNAVLLAVKEVEALLSSIDEIAAKAIGKKIHQNNGLDTENNHNGSLLAGAYAISTLIKQKLDGLKNEGLKEKIDAAKKCSETFTNKLKEKHTDLGKEGVTDADAKEAILKTNGTKTKGAEELGKLFESVEVLSKAAKEMLANSVKELTSP
stoichiometry N [3]: 2
